Reference: patent US20250376535A1 (BEIJING STARMAB BIOMED TECHNOLOGY, published 2025)
Read-outs that look alike come from different tables or passages of the source. Values belong to the binder of their own block, whether it stands above or below them.

Assays:
human serum albumin [1] = target: T1, human serum albumin (human, UniProt P02768 25-609); assay: BLI (Gator), His-tagged VHH on anti-His sensor, HSA 100 nM in solution
T1 construct: also called HSA
Description: (§1) Kinetic binding analysis of MSA VHHs were performed with Gator Prime system equipped with analyze software. […] The experiments were done at 30° C. Prior to analysis, sensors were socked in Q buffer for 600 sec with shaking at 1000 rpm, and then 2 μM of HIS tagged MSA VHHs were loaded to Anti-His sensors with shaking at 400 rpm for 120 sec. Loaded sensors were transferred into Q buffer for 60 sec. Association of HSA or MSA at 100 nM was initiated and monitored for 120-180 sec with shaking at 1000 rpm, and finally dissociation in Q buffer for 120-180 sec with 1000 rpm shaking. Software V2.0 (Gator Bio) was used for data analysis. The on-rate (Kₒₙ) and off-rate (Kd) were determined by fitting of the association and dissociation phases of each sample. The mathematical model used assumes a 1:1 stoichiometry, fitting only one analyte in solution binding to one binding site on the surface. The equilibrium dissociation constant (KD), a measure for affinity, was then calculated as the ratio of Kd and Kₒₙ.

murine serum albumin [2] = target: T2, murine serum albumin (murine, UniProt P07724 25-608); assay: BLI (Gator), His-tagged VHH on anti-His sensor, murine serum albumin 100 nM in solution
T2 construct: As antigen 'MSA' means murine serum albumin; the VHHs also carry the label MSA; also called MSA
Description: as §1

human serum albumin [3] = target: T1, human serum albumin; assay: BLI (Gator), His-tagged VHH on anti-His sensor, HSA 100 nM in solution; remark: listed apart in the source
Description: as §1

murine serum albumin [4] = target: T2, murine serum albumin; assay: ELISA, murine serum albumin coated, VHH 0.128 nM
Description: The 96-well plate was coated with 100 μL per well of HSA or MSA (murine serum albumin) prepared at 1 μg/ml in coating buffer at 4° C. overnight, then blocked with 200 μL per well of casein for one hour at room temperature. MSA VHHs were made into a series of dilutions and added to HSA or MSA coated plate for one hour incubation. The plate was washed with PBST four times, then incubated with Streptavidin conjugated with HRP at 25° C. for 1 hour. After three times of wash with 250 μL PBST per well, the plate was developed with 100 μL of TMB per well for 10 to 20 min in the dark and then stopped by adding 100 μL of Stop Solution.

murine serum albumin [5] = target: T2, murine serum albumin; assay: BLI (Gator), His-tagged VHH on anti-His sensor, murine serum albumin 100 nM in solution; remark: listed apart in the source
Description: as §1

4-1BB Fc = target: T3, 4-1BB Fc (human, UniProt Q07011 24-183); assay: blocking ELISA: 41BBL-mFc (1.m32) coated, VHH premixed with 41BB-hFc, bound 41BB-hFc detected with anti-human IgG Fc-HRP, OD450
T3 construct: also called rh-41BB; 41BB-hFc
Description: The 96-well plate was coated with 100 μL of 1 μg/mL 41BBL-mFc prepared in antigen coating buffer overnight at 4° C., then blocked with 2% BSA for 1 hour at 25° C. […] The plate was washed with PBST four times, then incubated with Mouse anti-human IgG Fc-HRP at 25° C. for 1 hour. After four times of wash with PBST, the plate was developed with 100 μL of TMB per well for 10 to 20 min in the dark and then stopped by adding 50 μL of Stop Solution.

Human 41BB antigen (BLI) = target: T4, Human 41BB antigen (BLI) (human, UniProt Q07011 24-183); assay: BLI, VHH-His on anti-His tips, human 41BB in solution;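 also: association tracked for 200 s, after which dissociation was followed in 1×PBS free of 41BB protein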
T4 construct: also called 41BB protein
Description: Tips were loaded using 20 μg/ml of anti-41BB VHH. Loading proceeded for 300 sec resulting in capture levels of between 1.8 and 2 nm. […] Association was initiated and monitored for 200 sec, after which tips were transferred to 1×PBS buffer without 41BB protein, in order to monitor dissociation.

[6] = target: T5, recombinant human OX40-Fc (human, UniProt P43489 29-214); assay: ELISA, OX40-Fc coated, VHH at 1000 nM
T5 construct: also called rh-OX40-Fc; human OX40 hFC (R & D systems)
T5 sequence: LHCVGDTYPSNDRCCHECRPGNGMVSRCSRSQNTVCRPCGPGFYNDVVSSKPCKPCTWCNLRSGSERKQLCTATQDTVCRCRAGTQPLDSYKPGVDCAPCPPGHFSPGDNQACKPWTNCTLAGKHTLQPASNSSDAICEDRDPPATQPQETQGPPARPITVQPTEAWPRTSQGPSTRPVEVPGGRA
Description: (§2) After four times washing with PBST, the plate was incubated with detecting antibody anti-his-HRP (1:4000 dilution) 100 μl per well for one hour with shaking at 60 rpm. The plate was developed with 100 μL of TMB per well in the dark and then stopped by 50 μL of stop solution per well. […] Data was analyzed using GraphPad Prisma 9.1.

[7] = target: T5, recombinant human OX40-Fc; assay: BLI, VHH-His on anti-His tips, OX40 hFc in solution;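 also: kinetics recorded at 30 °C in PBS pH 7.2, with 200 s of association followed by dissociation monitored in PBS lacking the OX40 protein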
Description: Bio-Layer Interferometry (BLI) kinetic binding analysis. […] Affinity measurements were performed with Gator equipped with Anti-Penta-His capture (HIS1K) biosensor tips. The assay was performed at 30° C. in 1×PBS buffer (Gibco®, PBS pH7.2). Samples were agitated at 1000 rpm. Prior to analysis, sensors were humidified for 15 min. Purified anti-OX40 VHH was tested for its binding capacity with HIS1K sensor tips. Tips were loaded using 20 μg/ml of anti-OX40 VHH. Loading proceeded for 300 s resulting in capture levels of between 1.8 and 2 nm. […] Association was initiated and monitored for 200 sec, after which tips were transferred to 1×PBS buffer without Factor protein (Gibco, PBS pH 7.2), in order to monitor dissociation. Sensor data was collected throughout the experiments, processed, and analyzed using the Gator data analysis software.

[8] = target: T5, recombinant human OX40-Fc; assay: ELISA, OX40-Fc coated, VHH at 0.32 nM
Description: as §2

[9] = target: T5, recombinant human OX40-Fc; assay: ELISA, OX40-Fc coated, VHH at 0.0128 nM
Description: as §2

[10] = target: T5, recombinant human OX40-Fc; assay: ELISA, OX40-Fc coated, VHH at 200 nM
Description: as §2

[11] = target: T5, recombinant human OX40-Fc; assay: ELISA, OX40-Fc coated, VHH at 40 nM
Description: as §2

[12] = target: T5, recombinant human OX40-Fc; assay: ELISA, OX40-Fc coated, VHH at 8 nM
Description: as §2

[13] = target: T5, recombinant human OX40-Fc; assay: ELISA, OX40-Fc coated, VHH at 1.6 nM
Description: as §2

[14] = target: T5, recombinant human OX40-Fc; assay: blocking ELISA, OX40-hFc premixed with VHH on coated OX40L-mFc; partial blocker; partial blocker
Description: (§3) Blocking Assay. The 96-well plate was coated with 100 μL of 1 μg/mL OX40L-mFc prepared in antigen coating buffer overnight at 4° C., then blocked with 2% BSA for 1 hour at 25° C. […] The plate was washed with PBST four times, then incubated with Mouse anti-human IgG Fc-HRP at 25° C. for 1 hour. After four times of wash with PBST, the plate was developed with 100 μL of TMB per well for 10 to 20 min in the dark and then stopped by adding 50 μL of Stop Solution.

[15] = target: T5, recombinant human OX40-Fc; assay: ELISA, OX40-Fc coated, VHH at 0.064 nM
Description: as §2

[16] = target: T5, recombinant human OX40-Fc; assay: blocking ELISA, OX40-hFc premixed with VHH on coated OX40L-mFc; full blocker; full blocker
Description: as §3

[17] = target: T6, recombinant human CD40-Fc (human, UniProt P25942 21-193); assay: ELISA, CD40-Fc coated, VHH at 8 nM
T6 construct: also called rh-CD40-Fc; CD40-hFc
Description: (§4) After four times washing with PBST, the plate was incubated with detecting antibody anti-his-HRP (1:4000 dilution) 100 μl per well for one hour with shaking at 60 rpm. The plate was developed with 100 μL of TMB per well in the dark and then stopped by 50 μL of stop solution per well.

[18] = target: T6, recombinant human CD40-Fc; assay: blocking ELISA: CD40L-mFc (1.m18) coated, VHH premixed with CD40-hFc, bound CD40-hFc detected with anti-human IgG Fc-HRP, OD450
Description: The 96-well plate was coated with 100 μL of 1 μg/mL CD40L-mFc prepared in antigen coating buffer overnight at 4° C., then blocked with 2% BSA for 1 hour at 25° C. […] The plate was washed with PBST four times, then incubated with Mouse anti-human IgG Fc-HRP at 25° C. for 1 hour. After four times of wash with PBST, the plate was developed with 100 μL of TMB per well for 10 to 20 min in the dark and then stopped by adding 50 μL of Stop Solution.

[19] = target: T6, recombinant human CD40-Fc; assay: ELISA, CD40-Fc coated, VHH at 0.064 nM
Description: as §4

[20] = target: T6, recombinant human CD40-Fc; assay: ELISA, CD40-Fc coated, VHH at 40 nM
Description: as §4

[21] = target: T6, recombinant human CD40-Fc; assay: ELISA, CD40-Fc coated, VHH at 0.013 nM
Description: as §4

[22] = target: T6, recombinant human CD40-Fc; assay: ELISA, CD40-Fc coated, VHH at 0.32 nM
Description: as §4

[23] = target: T6, recombinant human CD40-Fc; assay: ELISA, CD40-Fc coated, VHH at 0.0026 nM
Description: as §4

[24] = target: T7, Human CD40 antigen (recombinant, BLI) (human, UniProt P25942 21-193); assay: BLI, VHH-His on anti-His tips, human CD40 in solution;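 also: kinetics measured at 30 °C in PBS pH 7.2, association tracked for 200 s, then dissociation followed in PBS lacking CD40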
T7 construct: also called rh-CD40
Description: Bio-Layer Interferometry (BLI) kinetic binding analysis. […] Affinity measurements were performed with Gator equipped with Anti-Penta-His capture (HIS1K) biosensor tips. The assay was performed at 30° C. in 1×PBS buffer (Gibco®, PBS pH7.2). Samples were agitated at 1000 rpm. Prior to analysis, sensors were humidified for 15 min. […] Sensor data was collected throughout the experiments, processed, and analyzed using the Gator data analysis software.
Briefly, purified anti-CD40 VHH was tested for its binding capacity with HIS1K sensor tips. Tips were loaded using 20 μg/ml of anti-CD40 VHH. Loading proceeded for 300 sec resulting in capture levels of between 1.8 and 2 nm. […] Association was initiated and monitored for 200 sec, after which tips were transferred to 1×PBS buffer without CD40 protein in order to monitor dissociation.

[25] = target: T6, recombinant human CD40-Fc; assay: ELISA, CD40-Fc coated, VHH at 200 nM
Description: as §4

[26] = target: T6, recombinant human CD40-Fc; assay: ELISA, CD40-Fc coated, VHH at 1000 nM
Description: as §4

[27] = target: T6, recombinant human CD40-Fc; assay: ELISA, CD40-Fc coated, VHH at 1.6 nM
Description: as §4

T6 sequence (P25942 21-193): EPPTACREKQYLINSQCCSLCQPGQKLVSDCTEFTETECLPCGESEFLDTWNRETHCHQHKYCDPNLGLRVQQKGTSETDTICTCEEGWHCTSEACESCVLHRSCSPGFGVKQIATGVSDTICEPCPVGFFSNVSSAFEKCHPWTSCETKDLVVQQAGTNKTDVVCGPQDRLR
T7 sequence (P25942 21-193 limits assumed): as the sequence (P25942 21-193) above
T4 sequence (Q07011 24-183 limits assumed): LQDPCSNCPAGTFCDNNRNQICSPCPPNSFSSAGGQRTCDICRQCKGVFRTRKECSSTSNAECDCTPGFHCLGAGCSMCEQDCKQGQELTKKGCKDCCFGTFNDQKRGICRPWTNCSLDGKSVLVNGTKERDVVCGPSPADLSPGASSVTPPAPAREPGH
T3 sequence (Q07011 24-183): as the sequence (Q07011 24-183 limits assumed) above

B1: MSA4 (VHH)
VHH: EVQLVEFGGGLVQAGGSLRLSCAASGRTDSAYRMGWFRQAPGKEREFVSAINWSDGRTVYLDSVKGRFTISRDNAKNMVYLQMNSLKPEDTAVYYCAADPDSRLYYTVPQNYDYWGQGTQVTVSS
notes: Llama single domain antibody with C-terminal His-tag, made in HEK293; not shown: C-terminal His-tag
Kd (human serum albumin [1]): 7.16 nM | koff (human serum albumin [1]): 0.000752 s⁻¹ | kon (human serum albumin [1]): 105000 M⁻¹ s⁻¹ | Kd (murine serum albumin [2]): 4.49 nM | koff (murine serum albumin [2]): 0.000644 s⁻¹ | kon (murine serum albumin [2]): 143000 M⁻¹ s⁻¹ | Kd (human serum albumin [3]): 11.3 nM | koff (human serum albumin [3]): 0.00101 s⁻¹ | kon (human serum albumin [3]): 89600 M⁻¹ s⁻¹ | ELISA OD450 (murine serum albumin [4]): 0.07 | Kd (murine serum albumin [5]): 8.83 nM | koff (murine serum albumin [5]): 0.0011 s⁻¹ | kon (murine serum albumin [5]): 125000 M⁻¹ s⁻¹

B2: 4-1BB-59 (VHH, not shown: small tags and cut ends)
VHH: EVQLVESGGGLVQPGESLRLSCAASGDTVSGYVMLWWRQAPGKERELVAAISSVGYTYYTDSVKGRFTISRDNAKNTVYLQMNSLKPEDTAVYYCAADPASISTRSAYWGQGTQVTVSS
IC50 (read off the curve) (4-1BB Fc): ~0.5 nM | Kd (Human 41BB antigen (BLI)): 2.35 nM | koff (Human 41BB antigen (BLI)): 0.00121 s⁻¹ | kon (Human 41BB antigen (BLI)): 512000 M⁻¹ s⁻¹

B5: pgDD40-HZ-24 (VHH, not shown: small tags and cut ends)
VHH: EVQLVESGGGSVQAGGSLRLSCAASLSTFSNYRMGWFRRAPGKERELVARIEPHGVVDYGDSVKGRFTISRDNAKNTVTVYLHMNSLKPEDTAVYYCNALRLISGRYDPLFSSWGQGTQVTVSS
notes: also called pgDD40-HG-24
OD450 [17]: 1.7 | IC50 (read off the curve) [18]: ~20 nM | OD450 [19]: 0.084 | OD450 [20]: 1.71 | OD450 [21]: 0.055 | OD450 [22]: 0.251 | OD450 [23]: 0.078 | Kd [24]: < 0.001 nM | koff [24]: 1e-05 s⁻¹ | kon [24]: 607000 M⁻¹ s⁻¹ | OD450 [25]: 1.84 | OD450 [26]: 1.81 | OD450 [27]: 0.903

B6: pgXX88-10 (VHH, not shown: small tags and cut ends)
VHH: EVQLVESGGGLVQAGESLRLSCSASGSIRLNAVGWFRQAPVNQRLMVATITHNNSTNYADSVQGRFTIARDDAKNTVTLQMNSLKPEDTAVYMCKVYQLPVPISSHDDYWGQGTQVTVSS
OD450 [6]: 1.62 | Kd [7]: < 0.001 nM | koff [7]: 1e-06 s⁻¹ | kon [7]: 662000 M⁻¹ s⁻¹ | OD450 [8]: 0.993 | OD450 [9]: 0.119 | EC50 [16]: 0.12 nM | OD450 [10]: 1.61 | OD450 [11]: 1.54 | OD450 [12]: 1.48 | OD450 [13]: 1.46 | OD450 [15]: 0.369

The remaining lines, values ahead:

OD450 [6]: 1.78 | Kd [7]: 0.185 nM | koff [7]: 8.73e-05 s⁻¹ | kon [7]: 472000 M⁻¹ s⁻¹ | OD450 [8]: 0.126 | OD450 [9]: 0.062 | OD450 [10]: 1.58 | OD450 [11]: 1.49 | OD450 [12]: 1.12 | OD450 [13]: 0.463 | EC50 [14]: 1.98 nM | OD450 [15]: 0.076
B3: pgXX88-SZ-4 (VHH, not shown: small tags and cut ends)
VHH: QVQLVESGGGLAQPGSSLRLSCTASGTVFSILSATWFRQAPGKAHEARELVAFISSDGVSMHADSVKGRFTISRDNAASTVYLQMDNLQPEDTAVYFCKLSNSMMSLEYWGRGTQVTVSS
notes: also called ppXX88-SZ-4

OD450 [6]: 2.12 | Kd [7]: 0.48 nM | koff [7]: 0.000259 s⁻¹ | kon [7]: 539000 M⁻¹ s⁻¹ | OD450 [8]: 0.736 | OD450 [9]: 0.068 | EC50 [16]: 0.12 nM | OD450 [10]: 1.94 | OD450 [11]: 1.95 | OD450 [12]: 1.89 | OD450 [13]: 1.66 | OD450 [15]: 0.166
B4: pgXX88-SZ-15 (VHH, not shown: small tags and cut ends)
VHH: QVQLVESGGGLVQPGGSLRLSCSPSEGAFKMLTTGWFRQVLGKEREFVSAISWGGGATYYADSVKGRFTVSRDNAKNTVYLQMNSLKPEDTAVYYCAVDTGNGVATNIRSQSRYDYWGQGTQVTVSS
